Consider three molecules from patent US20190119348A1, “PARATHYROID HORMONE RECEPTOR 1 ANTAGONIST AND INVERSE AGONIST POLYPEPTIDES AND METHODS OF THEIR USE” (The General Hospital Corporation, priority 2016, published 2019).

The target of assay [1] is T1, human parathyroid hormone receptor 1 (hPTHR1) (human), Q03431.
T1 chain: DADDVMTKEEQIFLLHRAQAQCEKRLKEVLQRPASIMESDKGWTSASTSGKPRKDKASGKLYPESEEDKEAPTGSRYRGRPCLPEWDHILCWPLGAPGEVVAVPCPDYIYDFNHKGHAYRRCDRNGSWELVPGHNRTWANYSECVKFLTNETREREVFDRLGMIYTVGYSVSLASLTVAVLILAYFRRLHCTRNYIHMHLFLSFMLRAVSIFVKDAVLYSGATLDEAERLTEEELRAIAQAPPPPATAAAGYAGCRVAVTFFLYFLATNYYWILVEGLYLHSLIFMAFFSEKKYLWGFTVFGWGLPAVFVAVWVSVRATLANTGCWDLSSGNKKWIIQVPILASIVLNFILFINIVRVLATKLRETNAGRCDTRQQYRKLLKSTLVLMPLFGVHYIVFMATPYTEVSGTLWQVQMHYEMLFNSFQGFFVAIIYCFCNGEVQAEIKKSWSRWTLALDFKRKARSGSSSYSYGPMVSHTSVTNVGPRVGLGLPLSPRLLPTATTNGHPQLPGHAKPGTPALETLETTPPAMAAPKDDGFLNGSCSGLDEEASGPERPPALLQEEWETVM
As to the kind of experiment: cell-based or functional assay.

Assay [2] has as its target T1, human parathyroid hormone receptor 1 …. Kind of assay: radioligand competition on GP-2.3 cells (hPTHR1), tracer 125I-PTHrP(5-36), n=4. For orientation: In a radioligand displacement assay an active substance lowers the binding of a labelled ligand.
Assay [3] shares this target. Kind of assay: radioligand competition on GP-2.3 cells (hPTHR1), tracer 125I-PTH(1-34), n=4.
Assay [4] deals with hPTHR1-H223R (human) (UniProt Q03431). Kind of assay: cell-based or functional assay.
Assay [5] has the same target. Kind of assay: cell-based or functional assay. This is another data set of the same source.

Where two headings read alike, the source gives them in different places. Where no end group is shown, it is not given here.

Usually IC50 stands for the midpoint of a concentration-inhibition curve. Usually pIC50 stands for the negative decadic logarithm of the IC50, by convention in mol/L.

B1: dW12, Y34-bPTH(7-34)-1894 (peptide)
chain: FMHNLWKHLSSMERVEWLRKKLQDVHNY
modifications: not checked
Regarding B1, in assay [1], the IC50 (nanomolar value of the pIC50), antagonism of PTH(1-34)-induced cAMP response, GP-2.3 cells came out at 377 nM; the IC50 (nanomolar value of the pIC50), antagonism of PTH(1-34)-induced cAMP response, SGS-72 cells worked out at 5 nM; the IC50 (nanomolar value of the pIC50), antagonism of PTHrP(1-36)-induced cAMP response, SGS-72 cells is 5 nM; the IC50, antagonism of PTH(1-34) (0.3 nM)-induced cAMP response, SGS-72 cells was found to be 14.5 nM. Besides, in assay [1], the pIC50, antagonism of PTH(1-34) (0.3 nM)-induced cAMP response, SGS-72 cells was 7.84 -log M; the pIC50, antagonism of PTH(1-34)-induced cAMP response (GloSensor), GP-2.3 cells is 6.42 -log M; the pIC50, antagonism of PTH(1-34)-induced cAMP response, SGS-72 cells was 8.31 -log M; the pIC50, antagonism of PTHrP(1-36)-induced cAMP response, SGS-72 cells was 8.33 -log M. In assay [1], the pIC50, inhibition of the cAMP signal induced by PTH(1-34) (0.3 nM), SGS-72 cells is 7.2 -log M and the pIC50, inhibition of the cAMP signal induced by PTH(1-34) (1 nM), GP-2.3 cells was 6.4 -log M. In assay [2], the IC50 is 35.1 nM and the negative-log IC50 (pIC50) was 7.46 -log M. Besides, in assay [3], the 50% inhibitory concentration (IC50) worked out at 28.6 nM and the pIC50 is 7.54 -log M.

B2: LA-PTH(5-36)-2012 (peptide)
chain: IQLMHQRAKWIQDARRRAFLHKLIAEIHTAEI-NH2
As for B2, in assay [4], the Reduction of basal cAMP, % vehicle; After ligand washout; GHR-10 cells is -49 % vehicle and the Reduction of basal cAMP, % vehicle; Ligand @ -6M; GHR-10 cells is -15 % vehicle.

B3: dW12, W23-LA-PTH(5-36)-1949 (peptide)
chain: IQLMHQRWKWIQDARRRAWLHKLIAEIHTAEI
modifications: not checked
With B3, in assay [1], the IC50 (nanomolar value of the pIC50), antagonism of PTH(1-34)-induced cAMP response, GP-2.3 cells amounted to 101 nM; the IC50 (nanomolar value of the pIC50), antagonism of PTH(1-34)-induced cAMP response, SGS-72 cells came to 1 nM; the IC50 (nanomolar value of the pIC50), antagonism of PTHrP(1-36)-induced cAMP response, SGS-72 cells is 1 nM; the IC50, antagonism of PTH(1-34) (0.3 nM)-induced cAMP response, SGS-72 cells is 1.45 nM. In assay [1], the IC50, antagonism of PTHrP(1-36) (0.3 nM)-induced cAMP response, SGS-72 cells was 1.21 nM; the pIC50, antagonism of PTH(1-34) (0.3 nM)-induced cAMP response, SGS-72 cells was 8.84 -log M; the pIC50, antagonism of PTH(1-34)-induced cAMP response (GloSensor), GP-2.3 cells is 7 -log M; the pIC50, antagonism of PTH(1-34)-induced cAMP response, SGS-72 cells was 9.11 -log M. Besides, in assay [1], the pIC50, antagonism of PTHrP(1-36) (0.3 nM)-induced cAMP response, SGS-72 cells was 8.92 -log M; the pIC50, antagonism of PTHrP(1-36)-induced cAMP response, SGS-72 cells was 9.1 -log M; the washout assay: inhibition of the cAMP response to agonist applied after antagonist pre-treatment and rinsing was over 90%. Moreover, in assay [2], the IC50 came out at 17.7 nM and the pIC50 is 7.75 -log M. Further, in assay [3], the IC50 was 22.3 nM and the negative-log IC50 (pIC50) was 7.65 -log M. For the same molecule, in assay [5], the Reduction of basal cAMP, % vehicle; After ligand washout; GHR-10 cells came out at 30 % vehicle and the Reduction of basal cAMP, % vehicle; Ligand @ -6M; GHR-10 cells turned out to be 41 % vehicle.
